Target: the molecule itself
Test: Tricine SDS-PAGE, non-reducing against reducing; purified C5-His deglycosylated with glycopeptidase F, 12% gel

B1: N-terminal His-tagged C5 (C5-His) single domain of immunoglobulin new antigen receptor (IgNAR) (domain or fragment)
chain: PKVYLLHPSTDEIDTENSATLMCLATNFHPAEIYVGWMANDTLLDSGYRTQVDSEKGSGSSFVTDRLRLTAAEWNSDTTYSCLVGHPSLNRDLIRSTNKSNGKPSSVNVSVVLSDTVKSCT
  stoichiometry N: 2
